Source: publication PMC4294473

Biological target: recombinant human P301S 0N4R Tau (human)
Assay: co-sedimentation; cell seeding assay: HEK293T cells expressing P301S 1N4R Tau exposed 3 h to rising concentrations of heparin-assembled, sonicated recombinant Tau aggregates (Sarkosyl-insoluble), 3 days; Sarkosyl-insoluble pellet blotted with HT7

## human P301S 1N4R Tau expressed in HEK293T cells (natural protein)
  fold more seed needed than of TgP301S Tau aggregates for equivalent seeding: > 10 fold
  fold more seed needed than of TgP301S Tau seed for equivalent Sarkosyl-insoluble Tau: 50 fold
